Laboratory results published in paper PMC12214560, “NAD-dependent dehydrogenases enable efficient growth of Paracoccus denitrificans on the PET monomer ethylene glycol” (Nature Communications, 2025).
Residue numbers refer to the chain shown, from its start. Numbers in names are those of the source.

B1: EtgB, NAD-dependent alcohol dehydrogenase (Pden_2367) (enzyme, Paracoccus denitrificans DSM 413)
chain: MAKTMKAAVVREFGKPLTIDEVPVPEPGPGMIQVRIQASGVCHTDLHAAEGDWPVKPNPPFIPGHEGVGFVSAVGAGVKHVKEGDRVGVPWLYTACGHCRHCLGGWETLCESQLNTGYSVNGGFADYVVADPNYVGHLPKNVDFLDIAPVLCAGVTVYKGLKVTDTKPGDWVVISGIGGLGHMAVQYAKAMGMNVAAVDIDDEKLALARKLGATVTVNAATEPDPAAAIRKQTDGGAQGVLVTAVGRKAFEQAIGMVARGGTVALNGLPPGDFPLDIFGMVLNGITVRGSIVGTRLDLQESLDFAGDGKVKATVHKAKLEDINNIFGQMHKGQIEGRMVLDMAG
notes: The enzyme holds zinc ions; also called EtgB WT; alcohol dehydrogenase EtgB; source: E. coli BL21 AI, purified (Ni-NTA, desalting, size exclusion on Superdex 200 Increase)
B2: EtgB (Paracoccus denitrificans PD1222; H47N) (protein)
chain: B1 chain with H47N
notes: pET16b, His-tagged, E. coli BL21 AI, Ni-NTA purified; homotetramer; zinc-dependent medium-chain alcohol dehydrogenase
B3: EtgB (Paracoccus denitrificans PD1222; T44S) (protein)
chain: B1 chain with T44S
notes: as for B2
B4: EtgB (Paracoccus denitrificans PD1222; H47N/T44S) (protein)
chain: B1 chain with T44S, H47N
notes: as for B2
B5: EtgA, NAD-dependent aldehyde dehydrogenase (Pden_2366) (enzyme, Paracoccus denitrificans DSM 413)
chain: MPNDQTHPFRGVNALPFEERYDNFIGGEWVAPVSGRYFTNTTPITGAEIGQIARSEAGDIELALDAAHAAKEKWGATSPAERANIMLKIADRMERNLELLATAETWDNGKPIRETMAADLPLAIDHFRYFAGVLRAQEGSISQIDDDTVAYHFHEPLGVVGQIIPWNFPLLMACWKLAPAIAAGNCVVLKPAEQTPAGIMVWANLIGDLLPPGVLNIVNGFGLEAGKPLASSNRIAKIAFTGETTTGRLIMQYASENLIPVTLELGGKSPNIFFADVAREDDDFFDKALEGFTMFALNQGEVCTCPSRVLIQESIYDKFMERAVQRVQAIKQGDPRESDTMIGAQASSEQKEKILSYLDIGKKEGAEVLTGGKAADLGGELSGGYYIEPTIFRGNNKMRIFQEEIFGPVVSVTTFKDQAEALEIANDTLYGLGAGVWSRDANTCYRMGRGIKAGRVWTNCYHAYPAHAAFGGYKQSGIGRETHKMMLDHYQQTKNMLVSYSPKKLGFF
notes: EtgA, NAD-dependent aldehyde dehydrogenase of Paracoccus denitrificans DSM 413, gene Pden_2366 amplified from genomic DNA and cloned into pET16b; also called aldehyde dehydrogenase EtgA; source: E. coli BL21 AI, purified (Ni-NTA, desalting, size exclusion on Superdex 200 Increase)

Legend:
[1] = substrate: OCCO; assay: purified protein; assay type: biochemical, Paracoccus denitrificans; settings: 100 mM glycine-NaOH pH 10, 2.4 mM NAD+, 30 °C, oxidation
[2] = substrate: CC=O; assay: purified protein; assay type: biochemical, Paracoccus denitrificans; settings: 30 °C
[3] = substrate: CCCO; assay: purified protein; assay type: biochemical, Paracoccus denitrificans; settings: 100 mM glycine-NaOH pH 10, 2.4 mM NAD+, 30 °C, oxidation
[4] = substrate: CCCCO; assay: purified protein; assay type: biochemical, Paracoccus denitrificans; settings: 100 mM glycine-NaOH pH 10, 2.4 mM NAD+, 30 °C, oxidation
[5] = substrate: CC(O)CO; assay: purified protein; assay type: biochemical, Paracoccus denitrificans; settings: 100 mM glycine-NaOH pH 10, 2.4 mM NAD+, 30 °C, oxidation
[6] = substrate: O=CCO; assay: purified protein; assay type: biochemical, Paracoccus denitrificans; settings: 30 °C
[7] = substrate: CCO; assay: purified protein; settings: 100 mM glycine-NaOH pH 10, 2.4 mM NAD+, 30 °C, oxidation
[8] = target: the molecule itself; assay: cryo-EM structure; protein purified by Ni-NTA and size exclusion in buffer C (100 mM sodium chloride, 25 mM potassium phosphate pH 8.0, 1 mM DTT); Titan Krios 300 kV, K3 detector; processed in RELION-5.0; homo-oligomer seen in the map
[9] = 100 mM potassium phosphate pH 7.5, 0.2 mM NADH, reduction
[10] = 100 mM potassium phosphate pH 7.5, 2.4 mM NAD+, oxidation

Row | Protein | Km [1] [µM] | kcat [1] [s⁻¹] | kcat/Km [1] [M⁻¹ s⁻¹] | Km [5] [µM] | kcat [5] [s⁻¹] | kcat/Km [5] [M⁻¹ s⁻¹] | Km [7] [µM] | kcat [7] [s⁻¹] | kcat/Km [7] [M⁻¹ s⁻¹] | stoichiometry N [8] | also measured
1 | B1 | 11050 ± 1320 | 7.2 ± 0.2 | 651 ± 22 | 59460 ± 3310 | 3.5 ± 0.1 | 59.6 ± 1 | 120 ± 10 | 23.5 | 201000 | 4 | Km [2, 9]: 40 ± 10 µM; kcat [2, 9]: 158 ± 2.9 s⁻¹; kcat/Km [2, 9]: 3.84e+06 ± 240000 M⁻¹ s⁻¹; Km [3]: 110 ± 10 µM; kcat [3]: 18.7 ± 0.5 s⁻¹; kcat/Km [3]: 176000 ± 14000 M⁻¹ s⁻¹; Km [4]: 40 ± 10 µM; kcat [4]: 8.4 ± 0.1 s⁻¹; kcat/Km [4]: 213000 ± 14000 M⁻¹ s⁻¹; Km [6, 9]: 1040 ± 60 µM; kcat [6, 9]: 50.1 ± 1.2 s⁻¹; kcat/Km [6, 9]: 48300 ± 3200 M⁻¹ s⁻¹
2 | B2 | 53690 ± 4040 | 14.7 ± 0.3 | 274 ± 6 | 67180 ± 8900 | 13.2 ± 0.6 | 197 ± 8 | 230 ± 10 | 25.2 | 108000 | – | –
3 | B3 | 10170 ± 360 | 0.7 ± 0.1 | 70.2 ± 2.6 | 27680 ± 1730 | 1.6 ± 0.1 | 57.8 ± 0.7 | 100 ± 20 | 3.2 | 33200 | – | –
4 | B4 | 11510 ± 1470 | 2.9 ± 0.1 | 251 ± 5 | 19750 ± 2980 | 6.5 ± 0.2 | 330 ± 11 | 100 ± 20 | 10.7 | 105000 | – | –
5 | B5 | – | – | – | – | – | – | – | – | – | 4 | Km [2, 10]: 9 ± 1 µM; kcat [2, 10]: 1.3 ± 0.1 s⁻¹; kcat/Km [2, 10]: 135000 ± 21000 M⁻¹ s⁻¹; Km [6, 10]: 120 ± 10 µM; kcat [6, 10]: 6.3 ± 0.2 s⁻¹; kcat/Km [6, 10]: 51300 ± 4900 M⁻¹ s⁻¹
